The domain aggregation screens of Martell et al. (2025)

Experiment: soluble fraction after stress (log2 fold change); higher = more stays soluble; pooled small domains, quantitative proteomics
Conditions: stress: 75 degC
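Also: 20 min heating vs room temperature control held 20 min.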

Sequence | soluble fraction (log2)
HMDRNIVYSDFIRSVNQGQVSEVLVQGDNIRGRYLNGKVFQTFAPKDPSLISTLRNKGVRISAEPA | 0.00952
HMDRRSTTLQDIYTRIDAEEISEALELIPKLGEIEFEQNRAEIAEAAGVRPAVLDKLRKQAAKQENNKK | -0.00584
HMDRSAQVLFLEHARSRLPQRIQWAEELAELLSIGIDSAYRRIRGETALTFNEAVSVSRKYDISLDYLFK | -3.79
HMDRSKREKEQQELMLKVQQIFDDNQQRFGAEKIRTVLAQNGVRVSVKRVSAIMQELNLRSIR | -2.36
HMDRVMPVPEALIGMRFDIAVSRMLGVSRSQAAAYIDRGQVSIAGRGSQRSAQKSEKLVQGDSIEVAIA | -1.39
HMDRWSLLTLTTLAGGTLRFTELKRAIGDISQRMLAQTLRTLEREGYVSRKVYATIPPKVEYRLTALGQSL | -3.21
HMDRYAVRAEELAAALAQYHRHVGVYPENLEDLIAPTGPRGYRGPYLSELPTNPSTSKPDWGYDPATGRVS | 0.432
HMDSAFVSDIRDAFDEAGVDSYRFFGTHSFKRGGVQLYRLLGVSDQEIKERGHWQTFSAYFAYVQA | 0.164
HMDSESGAIIRRAVAQLAPKFRSTIVLRLIEGYSTEETAQILQLPVGTVLSRLARAKVQLMNLLTPYKEL | -0.0893
HMDSIDIDAETKSLGPNAPQIIKGIKEWGQGLVAKGVWSDQDFEEFKVFAATANGINALNKVRKFY | -0.037
HMDSIDVQQKKLLTDIELGNIEGIKLFLKRHNNTINFLTIKGFHPLVYAVRNNNMEIVNLFLTT | 0.149
HMDSIGTQIRKLREEAEMPLRKLSALLDIDQSTLSKIERDERRANTQMIEQIAKIFKVNKEQLLVA | -0.77
HMDSKPNDLLFVYVSQLIRSLTLNSSKKDSELADELEVSISQIRIWLKKLINEQLIVKESKPVKYRWKG | -2.84
HMDSLARKTVNGAEFYIYPVESAEGFYSLRRKFGVSQEEVIKYNPSAQNGLKSGQVLLIPVT | -0.298
HMDSLQDFAYEEIKKRIQNGEYAPGTKLNTQEISDSLGISRSPVLAAINRLIALGLVEATPRKGTTVA | -0.116
HMDSLSGQQGRVLEEINGFLQTGKVLLNGMEWSAVSKQPEDILPVDTEVVVVRVEGAHLVVKKA | -0.286
HMDSPRITMDQLRIGLYVYLDLTWFQHPFAFSHFKINSEDQIKTILGLGLKSVRYDPALSDPV | -2.91
HMDSQSVFADLVKSLSQKIASIPVWFEYTKNEQYDLISSYVSAKLKDLGVEFSQEEKEKFITMFMNS | -0.609

Sequence | soluble fraction (log2)
HMDSRQIIAALQARYADETGITALKIKFNNVLGYFVDVPARYGDPLMKPPLSETFIHRQTLASNVRF | -0.0679
HMDSSITLMRMYIPKGHNWENKLISDVSMPTNSLALMIKRNGTTIIPKGDTMILAKDTLILSVPSYEPS | -2.6
HMDSSNLSLIAGVGPTIEKKLRAAGITSWEQIAAWTEADVAKYDEELNLRGRITRDEWIEQAKELLAGKPP | 0.0267
HMDSTLDLVATQGGRLDQVLAEMIPEHSRNRLQHWIKAGRVLVDGQPVLEPKHKIYGGEDLAVRVD | 0.215
HMDSVSAVRTTHLNSYVLLLEKDGMAAATISRYIASMKGFFEYLFREHMIEEDPAFTLKPPKV | 0.009
HMDSVVPNVVGMTAEKANKALTDAGLNVKITGATIGSGAVVHSQSIPAGTVTSKGTVVSIEMRFAAAEGD | -0.242
HMDSYSILGIEKESSMEDIEKAYIDKISKIKKEVKNEKNAAAFEAVLTKAYNDILSQKENISEEQELAE | 0.0885
HMDTAGSVAIVSKSVIENGFGEIKYKGTYFKAQSDVYIPKDQMVKVIGKGDEQGSFLIVEKLN | 0.0706
HMDTIASESVRNRIEELISNENPKKPLSDQALVKMLQEFDIKIARRTVAKYREMLKIPPSSKRKQV | -0.265
HMDTIGSKVLAFLAGNLLDPTPFNYRFGYLYLNRTSKVIVEETDTYIDSGMRMTQEAVAEIMQKFAQ | -4.12
HMDTITMAGERYAVSDLEKVSGDIFEKAFGFEIDPKTADAKDVLPTMPKSDVDLFKKLSGIKP | 0.401
HMDTIYPFNPNFIDDYKGYVLGLNTNEIDRLLKYRSKGNWINSAEDFKKVTGIDDALLNKLSKSFKFPDWL | -1.81
HMDTLRPLGRYQNVHLTKQELTALQSEFSDWSERIERLSSYMASTGRKYQNHAATIRLWAEKDK | 0.0841
HMDTMINLIGLNLKKAKKELSNLGVNVKKVRYKKSSVYDEGVVIDQSIEAGRNIKNGDFITITVSSGKA | -0.473
HMDTNEPFAQLQLRFTDPIQYDYEVIRPVVLFSQSVTDRSDETEMPRTTVREKARQFVTEGMLGLVDK | 0.166
HMDTNTIIGLRIKALRTEKKYTLKYLSENSGLSIGFLSQLERGMTSVAIDSLDKISKVLDVELSSFFN | -3.05
HMDTPMQEAVLQRLRDKVAQAAAGSKLPTVRQLIADYGVGQHVIQAALEKLRTEGLITSHVGKGTFVG | 0.325
